Source: patent US20240117038A1 (Ablynx, published 2024)

How the values were obtained:
DSC1 = biological target: T1, DSC1; assay: membrane protein array validation: flow cytometry on unfixed cells expressing the protein, serial dilutions in buffer with 10% human serum albumin, fluorescently labeled secondary antibody that binds ISVDs
T1 construct: Tested in the validation titration of the membrane protein array
T1 chain: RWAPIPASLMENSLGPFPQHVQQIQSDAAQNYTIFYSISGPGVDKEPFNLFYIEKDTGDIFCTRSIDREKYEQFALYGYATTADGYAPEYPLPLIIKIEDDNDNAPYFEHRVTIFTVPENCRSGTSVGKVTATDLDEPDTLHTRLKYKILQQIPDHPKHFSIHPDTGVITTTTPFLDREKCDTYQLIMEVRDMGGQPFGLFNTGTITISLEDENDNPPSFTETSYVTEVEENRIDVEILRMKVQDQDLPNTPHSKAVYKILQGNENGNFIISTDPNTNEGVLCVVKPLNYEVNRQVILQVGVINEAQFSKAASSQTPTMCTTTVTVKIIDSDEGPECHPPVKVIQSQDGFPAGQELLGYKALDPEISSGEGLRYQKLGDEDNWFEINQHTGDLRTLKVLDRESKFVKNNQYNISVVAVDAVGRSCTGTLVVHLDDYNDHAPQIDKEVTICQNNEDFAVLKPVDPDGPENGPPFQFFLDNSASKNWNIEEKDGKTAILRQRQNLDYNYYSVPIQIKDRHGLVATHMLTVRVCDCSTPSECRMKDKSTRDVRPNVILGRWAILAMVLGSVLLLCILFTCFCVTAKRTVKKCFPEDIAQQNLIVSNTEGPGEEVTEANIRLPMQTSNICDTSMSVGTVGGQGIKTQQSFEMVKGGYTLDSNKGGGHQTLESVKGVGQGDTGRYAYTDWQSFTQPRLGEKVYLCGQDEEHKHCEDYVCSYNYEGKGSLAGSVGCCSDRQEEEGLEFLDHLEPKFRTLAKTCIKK

MCAM = biological target: T2, MCAM (human, UniProt P43121 24-646); assay: as above
T2 construct: whole, on cells; also called MUC18; cell surface glycoprotein MUC18

FCGR2B = biological target: T3, FCGR2B (human, UniProt P31994); assay: as above
T3 construct: overexpressed on live cells from an expression plasmid; Tested in the validation titration of the membrane protein array
T3 sequence (membrane protein, looked up): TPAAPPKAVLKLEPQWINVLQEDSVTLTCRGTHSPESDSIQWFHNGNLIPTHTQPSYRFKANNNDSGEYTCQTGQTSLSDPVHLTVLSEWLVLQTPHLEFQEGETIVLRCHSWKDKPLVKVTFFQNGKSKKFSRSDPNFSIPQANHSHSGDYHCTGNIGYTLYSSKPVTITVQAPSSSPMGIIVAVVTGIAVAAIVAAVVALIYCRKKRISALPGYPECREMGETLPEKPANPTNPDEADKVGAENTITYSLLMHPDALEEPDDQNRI

DCC = biological target: T4, DCC (human, UniProt P43146); assay: as above
T4 construct: overexpressed on live cells from an expression plasmid; Tested in the validation titration of the membrane protein array

human CX3CR1 [1] = biological target: T5, human CX3CR1 (human, UniProt P49238 1-355); assay: MSD-SET in-solution affinity on cell expressed human CX3CR1, 30 uM HSA, geometric mean of N = 3
T5 construct: Overexpressed on CHO K1, Ba/F3 or HEK293T cells; also called huCX3CR1; hCX3CR1
T5 sequence: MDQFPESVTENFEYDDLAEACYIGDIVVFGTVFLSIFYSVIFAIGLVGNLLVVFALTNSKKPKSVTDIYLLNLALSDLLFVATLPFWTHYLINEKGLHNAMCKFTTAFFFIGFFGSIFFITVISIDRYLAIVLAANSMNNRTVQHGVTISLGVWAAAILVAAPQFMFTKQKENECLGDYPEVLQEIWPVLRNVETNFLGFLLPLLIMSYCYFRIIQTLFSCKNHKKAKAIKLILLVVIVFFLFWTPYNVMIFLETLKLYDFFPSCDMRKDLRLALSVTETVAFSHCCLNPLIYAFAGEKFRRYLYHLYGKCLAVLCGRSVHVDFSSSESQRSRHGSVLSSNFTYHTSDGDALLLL
Description: (§1) The affinity was determined on 3 independent assay occasions.

human CX3CR1 [2] = biological target: T5, human CX3CR1; assay: cell-based or functional assay
human CX3CR1 [3] = biological target: T5, human CX3CR1; assay: cell-based or functional assay; remark: listed apart in the source
cynomolgus CX3CR1 = biological target: T6, cynomolgus CX3CR1 (cynomolgus monkey (Macaca fascicularis), UniProt P49238 1-355 (human entry)); assay: MSD-SET in-solution affinity on cell expressed cyno CX3CR1, 30 uM HSA, geometric mean of N = 3
T6 construct: Overexpressed on CHO K1 cells; also called cyno CX3CR1; cyCX3CR1
T6 chain: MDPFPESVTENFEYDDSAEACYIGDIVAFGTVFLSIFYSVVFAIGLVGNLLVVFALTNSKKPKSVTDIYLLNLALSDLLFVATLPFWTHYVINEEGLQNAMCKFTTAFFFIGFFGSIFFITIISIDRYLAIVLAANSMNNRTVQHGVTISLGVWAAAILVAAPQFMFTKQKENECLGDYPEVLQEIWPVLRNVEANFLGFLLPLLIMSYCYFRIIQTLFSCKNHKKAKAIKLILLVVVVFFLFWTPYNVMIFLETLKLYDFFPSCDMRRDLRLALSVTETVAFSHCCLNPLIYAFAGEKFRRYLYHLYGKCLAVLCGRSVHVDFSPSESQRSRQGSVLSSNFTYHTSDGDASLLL
Description: as §1

T4 sequence (P43146 26-1447 limits assumed): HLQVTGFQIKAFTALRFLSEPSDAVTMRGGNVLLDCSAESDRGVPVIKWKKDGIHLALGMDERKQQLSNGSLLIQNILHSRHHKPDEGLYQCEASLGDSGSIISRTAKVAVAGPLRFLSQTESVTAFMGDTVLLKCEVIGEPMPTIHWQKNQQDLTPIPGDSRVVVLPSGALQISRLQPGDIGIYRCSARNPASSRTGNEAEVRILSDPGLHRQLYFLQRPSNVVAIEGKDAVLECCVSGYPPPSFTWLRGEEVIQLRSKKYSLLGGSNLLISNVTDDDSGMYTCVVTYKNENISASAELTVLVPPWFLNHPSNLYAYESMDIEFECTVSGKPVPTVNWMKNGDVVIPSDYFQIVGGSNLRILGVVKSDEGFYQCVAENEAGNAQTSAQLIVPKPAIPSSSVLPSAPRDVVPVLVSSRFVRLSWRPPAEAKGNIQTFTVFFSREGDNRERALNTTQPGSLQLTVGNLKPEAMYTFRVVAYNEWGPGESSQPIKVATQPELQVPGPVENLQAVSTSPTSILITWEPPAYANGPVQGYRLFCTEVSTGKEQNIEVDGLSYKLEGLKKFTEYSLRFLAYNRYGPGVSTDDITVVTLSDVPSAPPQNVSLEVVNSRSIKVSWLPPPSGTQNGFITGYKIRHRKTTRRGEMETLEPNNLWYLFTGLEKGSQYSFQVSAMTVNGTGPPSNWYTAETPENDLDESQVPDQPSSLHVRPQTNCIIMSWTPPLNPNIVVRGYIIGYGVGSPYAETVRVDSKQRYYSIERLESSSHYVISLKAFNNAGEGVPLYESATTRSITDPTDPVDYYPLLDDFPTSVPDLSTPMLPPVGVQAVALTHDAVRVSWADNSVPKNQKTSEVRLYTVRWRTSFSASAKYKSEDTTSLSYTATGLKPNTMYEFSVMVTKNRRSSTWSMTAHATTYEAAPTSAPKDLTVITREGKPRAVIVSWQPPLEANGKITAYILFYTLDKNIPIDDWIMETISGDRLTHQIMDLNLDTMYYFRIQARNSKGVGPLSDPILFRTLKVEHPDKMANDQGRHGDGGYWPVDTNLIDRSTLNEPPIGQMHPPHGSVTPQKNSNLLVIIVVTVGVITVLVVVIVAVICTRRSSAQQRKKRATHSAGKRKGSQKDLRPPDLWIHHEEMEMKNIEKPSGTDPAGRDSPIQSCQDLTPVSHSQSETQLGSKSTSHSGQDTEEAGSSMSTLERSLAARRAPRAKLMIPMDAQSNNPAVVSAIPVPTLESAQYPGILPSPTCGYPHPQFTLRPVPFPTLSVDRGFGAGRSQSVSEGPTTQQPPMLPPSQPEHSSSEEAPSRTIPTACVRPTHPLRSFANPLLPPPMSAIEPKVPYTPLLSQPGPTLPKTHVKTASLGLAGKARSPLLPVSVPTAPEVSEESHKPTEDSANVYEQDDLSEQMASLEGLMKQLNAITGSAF

B1: A041600035 (VHH)
chain: DVQLVESGGGSVQPGGSLRLSCAASGSIFSSTAMAWYRQAPGKQRDLVAVISTVGITKYADSVKGRFTISRDNAKNTVYLQMNSLRPEDTALYYCTSDARRGWDTRYWGQGTLVTVSSGGGGSGGGSEVQLVESGGGSVQPGGSLRLSCAASGSIFSSTAMAWYRQAPGKQRDLVAVISTVGITKYADSVKGRFTISRDNAKNTVYLQMNSLRPEDTALYYCTSDARRGWDTRYWGQGTLVTVSSGGGGSGGGSEVQLVESGGGVVQPGGSLRLSCAASGFTFRSFGMSWVRQAPGKGPEWVSSISGSGSDTLYADSVKGRFTISRDNSKNTLYLQMNSLRPEDTALYYCTIGGSLSRSSQGTLVTVSSA
notes: Trivalent ISVD construct (two anti-CX3CR1 ISVDs, one anti-albumin ISVD), C-terminal alanine included in the entry; also called 54A12_SO (E1D)-9GS-54A12_SO-9GS-ALB23002-A
binding result (DSC1): no binding (tested: 20 ug/ml)
binding result (MCAM): no binding (tested: 20 ug/ml)
binding result (FCGR2B): no binding (tested: 20 ug/ml)
binding result (DCC): no binding (tested: 20 ug/ml)
Kd (human CX3CR1 [1]): 0.13 nM
fold inhibition of monocyte migration (A041600035 VS IRR VHH), healthy, CD16+ monocytes (human CX3CR1 [2]): 2.34 fold
fold inhibition of monocyte migration (A041600035 VS IRR VHH), healthy, CD16- monocytes (human CX3CR1 [2]): 1.5 fold
fold inhibition of monocyte migration (A041600035 VS IRR VHH), healthy, total monocytes (human CX3CR1 [2]): 1.82 fold
fold inhibition of monocyte migration (A041600035 VS IRR VHH), lupus nephritis, CD16+ monocytes (human CX3CR1 [2]): 1.9 fold
fold inhibition of monocyte migration (A041600035 VS IRR VHH), lupus nephritis, CD16- monocytes (human CX3CR1 [2]): 1.71 fold
fold inhibition of monocyte migration (A041600035 VS IRR VHH), lupus nephritis, total monocytes (human CX3CR1 [2]): 1.71 fold
arbitrary migration index (GM), classical monocytes of healthy donors, 625 pM (human CX3CR1 [3]): 1.15 fold change to media control
arbitrary migration index (GM), classical monocytes of healthy donors, 2500 pM (human CX3CR1 [3]): 1.09 fold change to media control
arbitrary migration index (GM), classical monocytes of healthy donors, 10000 pM (human CX3CR1 [3]): 1.05 fold change to media control
arbitrary migration index (GM), classical monocytes of healthy donors, 40000 pM (human CX3CR1 [3]): 1.27 fold change to media control
arbitrary migration index (GM), intermediate monocytes of healthy donors, 625 pM (human CX3CR1 [3]): 1.26 fold change to media control
arbitrary migration index (GM), intermediate monocytes of healthy donors, 2500 pM (human CX3CR1 [3]): 1.14 fold change to media control
arbitrary migration index (GM), intermediate monocytes of healthy donors, 10000 pM (human CX3CR1 [3]): 1.04 fold change to media control
arbitrary migration index (GM), intermediate monocytes of healthy donors, 40000 pM (human CX3CR1 [3]): 1.13 fold change to media control
arbitrary migration index (GM), non-classical monocytes of healthy donors, 625 pM (human CX3CR1 [3]): 1.05 fold change to media control
arbitrary migration index (GM), non-classical monocytes of healthy donors, 2500 pM (human CX3CR1 [3]): 1.08 fold change to media control
arbitrary migration index (GM), non-classical monocytes of healthy donors, 10000 pM (human CX3CR1 [3]): 0.82 fold change to media control
arbitrary migration index (GM), non-classical monocytes of healthy donors, 40000 pM (human CX3CR1 [3]): 0.91 fold change to media control
Kd (cynomolgus CX3CR1): 0.11 nM
